Assays:
[1] = biological target: NprR(ΔHTH)(Y223A/F225A) (Bacillus thuringiensis (strain 407)); test: crystal structure; NprR(ΔHTH)(Y223A/F225A) alone, crystallized at 18°C in 1.0 M Na citrate, 0.1 M Hepes pH 7.6; 3.25 Å, space group P 21 21 21, 2 molecules per asymmetric unit
[2] = biological target: NprR from B. thuringiensis strain 407 (NprR-6His) (Bacillus thuringiensis (strain 407)); test: MST; 33 nM NprR labelled with NT-495-NHS; Bt Spo0F serially diluted from about 260 μM to 8 nM; 5% glycerol in MST buffer (50 mM Tris-HCl pH 7.4, 150 mM NaCl, 10 mM MgCl2, 0.05% Tween-20); 20% LED power, 40% IR-laser power; absence of NprX; apparent Kd

Row | Molecule | stoichiometry N [1] | Kd [2]
1 | NprR(ΔHTH)(Y223A/F225A) (domain or fragment) | 2 | 
2 | Spo0F from B. thuringiensis (6His-Spo0F) (natural protein) MEGKILIVDDQYGIRVLLHEVFQKEGYQTFQAANGFQALDIVKKDNPDLVVLDMKIPGMDGIEIFKACKEIDESIKVILMSAYGELDMIQEAKDLGALMHFAKPFDIDEIRQAVRNELAVEA |  | 5 µM

Reference: PMC4970707
